Reference: US20080089862A1, “PROTEASE INHIBITORS AND METHOD OF SCREENING THEREOF” (priority 2005, published 2008)
No end group written: not given here.

Biological target: T1, MBP-scNS3 (Hepatitis C virus genotype 1b, UniProt P26663)
T1 construct: made in house
Experiment: Bacterial genetic screening, blue/white colonies on X-gal indicative plates
Type: cell-based, Hepatitis C virus (HCV) genotype Ib
Details: IPTG-induced test bacteria (pMGT14); blue = NS3 inhibited
Source text: Applying the bacterial genetic screening to isolate NS3-inhibitory scFvs. Affinity selected phages were pooled and used as source for scFv DNA by digestion of phagemid DNA with Ncol and Notl. The pooled insert DNA was cloned into pMALc-NN that had been digested with the same enzymes essentially as described (Bach et al., 2001). In pMALc-NN, expression of MBP-scFvs is under the control of an IPTG-inducible tac promoter and the plasmid carries an ampicillin resistance cassette and the colEl origin of replication and is thus compatible with pMGT14 or pMGT15. The plasmid pool was introduced into E. coli TG-I cells already containing the pMGT14 plasmid. The transformants were plated to yield individual colonies on 2xYT agar plates supplemented with 0.004% (w/v) X-gal, 100 μg/ml ampicillin, 50 μg/ml kanamycin, 0.2% arabinose and 0.05 mM IPTG. Blue colonies were picked and pMALc-NN-scFv DNA was recovered and re-introduced into pMGT14 expressing cells to validate the results of the initial screening.
The expression platform was constructed as follows: C-terminal peptides were introduced by PCR using pMALc-NN (Bach et al., 2001) as template and recloning into the same backbone. The ligated vectors were introduced into the “bacterial test strain” and IPTG induction was used to overexpress the peptides. […]

## EASEDVVC (not fully specified) ["product-like" peptide (NS5A/B site P side), control construct]
  colony colour on X-gal plates: blue

## DYKDDDDK [FLAG epitope]
  colony colour on X-gal plates: colorless
